The supplement of paper PMC10567573
± gives the standard deviation.

Test: protein stability index of a GFP-peptide fusion (GPS, HEK-293T) (PSI 1-6); higher = more stable
[1] = treatment: DMSO, c terminus: a fixed tail appended
[2] = treatment: MLN4924 1 uM, 8 h, c terminus: a fixed tail appended
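Further: 24-mer peptide tiles fused after GFP, lentivirally expressed, FACS-sorted into six equal bins by GFP/DsRed ratio, decoded by Illumina sequencing, PSI is the read-weighted mean bin number.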

| Sequence | protein stability index [1] | protein stability index [2] | protein stability index (treatment: DMSO, c terminus: native) | protein stability index (treatment: MLN4924 1 uM, 8 h, c terminus: native) |
| --- | --- | --- | --- | --- |
| KGKKLYPVVSAVWGHCEIRMRYLN [SPSB1] | 2.23 ± 0.35 | 2.26 ± 0.23 |  |  |
| EHKSLESLADGGSASPIKDQPVMA [FANCE] | 5.43 ± 0.27 | 5.32 ± 0.2 |  |  |
| GVIAAIVQLHNGTKYKKFPHWLDK [STEAP1] | 2.6 ± 0.31 | 2.39 ± 0.63 |  |  |
| PSTASLLLCPGGLDHKLNLRGKAW [TIAF1] | 2.69 ± 0.24 | 2.87 ± 0.24 |  |  |
| MTEAALALSEQKAQDLGELLATAE [LRRC45] | 5.16 ± 0.13 | 5.08 ± 0.13 |  |  |
| GSRHPTLVLPLVPELLSTHPFFDT [INTS4] | 2.23 ± 0.28 | 2.31 ± 0.078 |  |  |
| ESRACLERIQELEDLLAKEKDNSR [LMNB1] | 5.04 ± 0.46 | 5.15 ± 0.27 |  |  |
| PCASLLAFASTCLLSRFSVGIFHL [TMEM175] | 3.43 ± 0.076 | 3 ± 0.3 |  |  |
| LMSAQTITSETTSTTTTTHITKTV [EPB41L3] | 4.5 ± 0.26 | 4.68 ± 0.14 |  |  |
| HLQHKLICTRKPEEIRGGGLLKYC [TENT5D] | 2.21 ± 0.39 | 2.88 ± 0.095 |  |  |
| KVYPVQEALAVLEPYARLPPHKHV [TRIB3] | 3.02 ± 0.26 | 3.09 ± 0.15 |  |  |
| LGLDNRLFGHPGLDMELGPSQGQE [ADAMTSL2] | 4.84 ± 0.21 |  |  |  |
| AAPDCTPSLEAGNPAPAAPCPLGE [MYCL] | 5.42 ± 0.25 | 5.49 ± 0.26 |  |  |
| ETELAMRQSVENDIHGLRKVIDDT [KRT18] | 5.17 ± 0.28 | 5.2 ± 0.18 |  |  |
| GEVVTESQKEQRSELDKSSAHSY [PRPH] |  |  | 5.67 ± 0.24 | 5.77 ± 0.1 |
| IGLRQHHCRKCGKAVCGKCSSKRS [WDFY2] | 4.08 ± 0.17 | 4.15 ± 0.26 |  |  |
| QETAEFFLSLDIPIGELYGLSESS [ACSBG2] | 2.61 ± 0.37 | 2.47 ± 0.41 |  |  |
| KKTWKILTIMPYNSAHHCVVEVEN [KLHL14] | 2.27 ± 0.37 | 2.64 ± 0.26 |  |  |
| DMWSLGCILVEMHTGEPLFSGSNE [DYRK1B] | 1.97 ± 0.33 | 2.15 ± 0.23 |  |  |
| ENLIRERSQQQEPLLCPSYQSYFK [KRT33B] | 3.39 ± 0.26 | 3.59 ± 0.59 |  |  |
| ETVSPLPSSMDLLIQDSPDSSTSP [NANOGP8] | 5.45 ± 0.37 | 5.45 ± 0.25 |  |  |
| SFPPSLSSSSSSSPTSGSPRGSHS [LURAP1L] | 4.96 ± 0.2 | 5.01 ± 0.16 |  |  |
| RPDRSSQGGSLPSEEKGHPQEESE [CHGB] | 5.75 ± 0.27 | 5.48 ± 0.38 |  |  |

| Sequence | protein stability index [1] | protein stability index [2] | protein stability index (treatment: DMSO, c terminus: native) | protein stability index (treatment: MLN4924 1 uM, 8 h, c terminus: native) |
| --- | --- | --- | --- | --- |
| EKSLDQLKSISAEEILTLFCGAPP [PHTF1] | 3.02 ± 0.21 | 3.3 ± 0.15 |  |  |
| PGAGSRRRGRMALCGQAAGAASLP [FBXO33] | 2.76 ± 0.2 | 2.97 ± 0.17 |  |  |
| YGSCYTVDGVWTAQRPGITHGVGL [SCNN1D] | 2.69 ± 0.5 | 2.2 ± 0.15 |  |  |
| FIEERRQGLEQFINKIAGHPLAQN [SNX12] | 2.73 ± 0.17 | 2.94 ± 0.47 |  |  |
| ISHWHPNITINIVDDHTPWVKGSV [CLPTM1] | 2.37 ± 0.22 | 2.03 ± 0.34 |  |  |
| ASRVKLQHLPAQEQWDRLLVLYPT [PLEKHN1] | 2.21 ± 0.14 | 2.41 ± 0.35 |  |  |
| EGAIVMARGRHVGSSETNLLQHLL [PYCR3] | 3.25 ± 0.78 | 3.18 ± 0.08 |  |  |
| LQVAGLSEEQLQEPITGWRKTVCH [LPCAT4] | 3.29 ± 0.25 | 3.47 ± 0.12 |  |  |
| AILSLDQIKAIRGSNEYTEGPSVV [SPRY1] | 3 ± 0.072 | 2.98 ± 0.3 |  |  |
| CVSIPDVVGWFVLFYKPGIVLLLA [GULP1] | 2.63 ± 0.55 | 3.09 ± 0.066 |  |  |
| NTRVRELAQAAGFAPQTGARPSET [DNAAF3] | 4.71 ± 0.11 | 4.79 ± 0.25 |  |  |
| GASVRGLHPVQKVILNYPSPWDQE [TRAF3IP2] | 3.79 ± 0.33 | 4.1 ± 0.36 |  |  |
| ALSEQKAQDLGELLATAEQEQLSL [LRRC45] | 5.07 ± 0.36 | 5.27 ± 0.1 |  |  |
| RLLELMNQHDTEMKYYIVHLKRHF [DYRK1B] | 2.35 ± 0.22 | 2.54 ± 0.48 |  |  |
| SGLDSPSHAAPGPSPDSWVPRPGT [FCHO1] | 4.08 ± 0.18 | 4.25 ± 0.19 |  |  |
| KNMDQVAPVANSYRGTLKRQPAFD [ETS2] | 3.99 ± 0.41 | 4.15 ± 0.21 |  |  |
| DVKKLEEAGFHTVEAVAYAPKKEL [RAD51] | 4.73 ± 0.2 | 4.91 ± 0.078 |  |  |
| LIYGSMEMFPAAQQLYRHGKAYRF [JAGN1] | 2.28 ± 0.36 | 2.21 ± 0.093 |  |  |
| DMTFEEEAQLLQLKVKCLNNLAAS [FKBP8] | 3.42 ± 0.27 | 3.54 ± 0.46 |  |  |
| LDSEKRTPLHVAAFLGDAEIIELL [ANKRD44] | 2.95 ± 0.12 | 3.03 ± 0.32 |  |  |
| YSLLPQSTAPGLFLVSTHTGEVRT [PCDHGC5] | 3.07 ± 0.14 | 3.07 ± 0.29 |  |  |
| NISDADVHNAMDNYECNLYTFLYL [FEM1B] | 2.25 ± 0.66 | 2.42 ± 0.45 |  |  |
| GEQPEPGEAAAGGAAEEARRLEQR [ACBD3] | 5.53 ± 0.34 | 5.44 ± 0.24 |  |  |

| Sequence | protein stability index [1] | protein stability index [2] | protein stability index (treatment: DMSO, c terminus: native) | protein stability index (treatment: MLN4924 1 uM, 8 h, c terminus: native) |
| --- | --- | --- | --- | --- |
| KLATCYFFTVEFGLCKQDGQLRVF [TPH1] | 2.59 ± 0.47 | 2.97 ± 0.56 |  |  |
| TAPQQKPIGKISKNKKKKLKKKQK [SRPK2] | 4.92 ± 0.32 | 4.84 ± 0.67 |  |  |
| FNKPSRVPAPEAFRDPIWSTWALY [MYORG] | 2.23 ± 0.46 | 2.25 ± 0.47 |  |  |
| QPPSCQGEAAGSSLIGHLQTLSPD [DUSP5] | 4.76 ± 0.14 | 4.69 ± 0.13 |  |  |
| DRTAIRSDTTHLVTLGGVLRQQLV [KLHL13] | 2.61 ± 0.28 | 2.73 ± 0.22 |  |  |
| VQKRARSGPQPRLPPCLLPLSPPT [TRIB3] | 3.35 ± 0.2 | 3.46 ± 0.23 |  |  |
| QQPSLNTMIQQQNMQQPMNVMTQS [CLINT1] | 4.41 ± 0.21 | 4.52 ± 0.087 |  |  |
| GALEALELSPPLSPASHVDVDLTI [FOXJ1] | 3.17 ± 0.23 | 3.43 ± 0.36 |  |  |
| FSHEILRDEESFFGERRIPRGRRI [ALKBH7] | 3.34 ± 0.4 | 3.84 ± 0.4 |  |  |
| APNRFFQKLNVFKNFIGLLQNQNF [NLN] |  | 2.24 ± 0.82 |  |  |
| VDLSRILNEMRDQYEKMAEKNRKD [KRT17] | 3.52 ± 0.24 | 3.76 ± 0.36 |  |  |
| ECLPENLGGYVKIDLATWNFQFLP [PTPN9] | 2.36 ± 0.33 | 2.21 ± 0.38 |  |  |
| RAAQLQHSEKMAQYLEEERHMREE [CCDC6] | 5.15 ± 0.25 | 5 ± 0.46 |  |  |
| PARAPPEPPHNLFCAPGSWEWNEL [SERTAD3] | 3.36 ± 0.3 | 3.32 ± 0.32 |  |  |
| LSDREVVNLFLHFTVNPKPRVEYI [BTBD1] | 2.98 ± 0.73 | 2.5 ± 0.26 |  |  |
| QMPTEIEFPESRKPISTKSQFLKH [ZNF649] | 4.16 ± 0.19 | 4.26 ± 0.19 |  |  |
| KAKANGITMYAVGVGKAIEEELQE [MATN2] | 3.83 ± 0.33 | 4.12 ± 0.32 |  |  |
| SWLDVQVSNTYVKQKTSAALSTMG [TPD52L3] | 2.79 ± 0.27 | 2.47 ± 0.22 |  |  |
| QPNTYADFEFLAFWQTQYNNMNAV [PKD2L1] | 2.21 ± 0.4 | 2.03 ± 0.24 |  |  |
| EAMFCDFPKINHGILYDEEKYKPF [CFHR2] | 2.49 ± 0.34 | 2.81 ± 0.26 |  |  |
| MERVNETVVREVIFLGFSSLARLQ [OR10K2] | 2.64 ± 0.65 | 2.4 ± 0.5 |  |  |
| KCGDLECEALINRVSAMRDYRGPD [MIA2] | 3.25 ± 0.63 | 3.21 ± 0.076 |  |  |
| MLGKYNTPVSYRMAKTLVFSKVKT [ACSBG2] | 2.46 ± 0.31 | 2.35 ± 0.23 |  |  |

| Sequence | protein stability index [1] | protein stability index [2] | protein stability index (treatment: DMSO, c terminus: native) | protein stability index (treatment: MLN4924 1 uM, 8 h, c terminus: native) |
| --- | --- | --- | --- | --- |
| YRLLKCAPRGKNGFTPLHMAVDKD [FEM1A] | 2.84 ± 0.22 | 2.96 ± 0.14 |  |  |
| ARGAGPPEPLRICPLHISVKEELD [TRIM35] | 4.59 ± 0.19 | 4.86 ± 0.4 |  |  |
| GLAKEYIDPETKKHIPYREHKSLT [CSNK1G3] | 4.21 ± 0.22 | 4.2 ± 0.13 |  |  |
| RGCSRVEGGGTSLHVACELARPEC [ANKRD9] | 3.62 ± 0.3 | 3.69 ± 0.18 |  |  |
| QQGEYSEAIPILRAALKLEPSNKT [FKBP8] | 4.12 ± 0.19 | 4.14 ± 0.11 |  |  |
| SPLQTIGEEQTQNPYTELLVLKAH [WDR41] | 3.78 ± 0.078 | 3.75 ± 0.3 |  |  |
| QKNFELAFTMAENLANCERLIEVE [SMTNL2] | 2.45 ± 0.2 | 2.88 ± 0.67 |  |  |
| KRYAGREEHWVGLKKEPGHPWKWS [CD69] | 2.76 ± 0.22 | 2.83 ± 0.2 |  |  |
| HAPTIHFNYRYFEVEEADGNKQWW [CPOX] | 2.66 ± 0.38 | 2.7 ± 0.29 |  |  |
| TNVVTGHRQSFGTNSDVLAQQFAL [DCAF4] | 3.35 ± 0.1 | 3.43 ± 0.33 |  |  |
| LPPSPPPSPASEQTVTVEEAAGGE [MAP2] | 5.4 ± 0.27 | 5.51 ± 0.16 |  |  |
| RQNDILQVVSQGWKYFKGNFYYFS [CD207] | 2.3 ± 0.73 | 2.06 ± 0.58 |  |  |
| KLCTAHMCSTLEHNCAHFCINIPG [MATN2] | 2.22 ± 0.38 | 2.22 ± 0.29 |  |  |
| RPEKHTKEQILEFLVLEQFLTILP [ZNF232] | 3.03 ± 0.62 | 3.4 ± 0.66 |  |  |
| MGHIKPDLIDVDLIRGSTFAKAKP [PHTF1] | 3.56 ± 0.24 | 3.67 ± 0.35 |  |  |
| QQLKEFDGKSLVSVTKEGLELPED [HSP90AB1] | 5.29 ± 0.42 | 5.3 ± 0.44 |  |  |
| QLELRAGAERLDALLADEERCLSC [TRADD] | 3.98 ± 0.25 | 4.24 ± 0.18 |  |  |
| ELSGAPRCHTVPCAGSTALQEPGE [PXN] | 4.9 ± 0.28 | 5.05 ± 0.32 |  |  |
| HVASLADDKMVRFWRIDEDYPVQV [WSB1] | 2.4 ± 0.23 | 3.02 ± 0.51 |  |  |
| KPGLRRSPIKKVRKSLALDIVDED [MYBL2] | 4.84 ± 0.5 | 4.92 ± 0.48 |  |  |
